The chains are these.
B1: Late cornified envelope protein 1B (Homo sapiens), Q5T7P3 (parent)
chain: MSCQQNQQQCQPPPKCIPKCPPKCLTPRCPPKCPPKCPPVSSCCSVSSGGCCGSSSGGSCGSSSGGCCSSGGGGCCLSHHRRRRSHCHRPQSSGCCSQPSGGSSCCGGGSGQHSGGCC
partner: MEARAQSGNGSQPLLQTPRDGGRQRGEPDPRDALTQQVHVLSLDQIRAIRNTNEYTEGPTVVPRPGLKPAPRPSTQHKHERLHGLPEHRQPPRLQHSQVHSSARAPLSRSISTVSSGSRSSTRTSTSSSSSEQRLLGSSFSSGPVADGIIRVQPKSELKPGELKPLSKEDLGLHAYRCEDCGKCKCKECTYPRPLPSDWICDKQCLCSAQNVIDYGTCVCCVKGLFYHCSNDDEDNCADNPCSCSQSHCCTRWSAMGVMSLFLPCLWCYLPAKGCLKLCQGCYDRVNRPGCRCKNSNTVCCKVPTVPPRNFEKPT
B2: Alpha-ketoglutarate-dependent dioxygenase alkB homolog 3 (Homo sapiens), Q96Q83 (parent)
chain: MEEKRRRARVQGAWAAPVKSQAIAQPATTAKSHLHQKPGQTWKNKEHHLSDREFVFKEPQQVVRRAPEPRVIDREGVYEISLSPTGVSRVCLYPGFVDVKEADWILEQLCQDVPWKQRTGIREDITYQQPRLTAWYGELPYTYSRITMEPNPHWHPVLRTLKNRIEENTGHTFNSLLCNLYRNEKDSVDWHSDDEPSLGRCPIIASLSFGATRTFEMRKKPPPEENGDYTYVERVKIPLDHGTLLIMEGATQADWQHRVPKEYHSREPRVNLTFRTVYPDPRGAPW
B3: DNA topoisomerase 3-beta-1 (Homo sapiens), O95985 (parent)
chain: MKTVLMVAEKPSLAQSIAKILSRGSLSSHKGLNGACSVHEYTGTFAGQPVRFKMTSVCGHVMTLDFLGKYNKWDKVDPAELFSQAPTEKKEANPKLNMVKFLQVEGRGCDYIVLWLDCDKEGENICFEVLDAVLPVMNKAHGGEKTVFRARFSSITDTDICNAMACLGEPDHNEALSVDARQELDLRIGCAFTRFQTKYFQGKYGDLDSSLISFGPCQTPTLGFCVERHDKIQSFKPETYWVLQAKVNTDKDRSLLLDWDRVRVFDREIAQMFLNMTKLEKEAQVEATSRKEKAKQRPLALNTVEMLRVASSSLGMGPQHAMQTAERLYTQGYISYPRTETTHYPENFDLKGSLRQQANHPYWADTVKRLLAEGINRPRKGHDAGDHPPITPMKSATEAELGGDAWRLYEYITRHFIATVSHDCKYLQSTISFRIGPELFTCSGKTVLSPGFTEVMPWQSVPLEESLPTCQRGDAFPVGEVKMLEKQTNPPDYLTEAELITLMEKHGIGTDASIPVHINNICQRNYVTVESGRRLKPTNLGIVLVHGYYKIDAELVLPTIRSAVEKQLNLIAQGKADYRQVLGHTLDVFKRKFHYFVDSIAGMDELMEVSFSPLAATGKPLSRCGKCHRFMKYIQAKPSRLHCSHCDETYTLPQNGTIKLYKELRCPLDDFELVLWSSGSRGKSYPLCPYCYNHPPFRDMKKGMGCNECTHPSCQHSLSMLGIGQCVECESGVLVLDPTSGPKWKVACNKCNVVAHCFENAHRVRVSADTCSVCEAALLDVDFNKAKSPLPGDETQHMGCVFCDPVFQELVELKHAASCHPMHRGGPGRRQGRGRGRARRPPGKPNPRRPKDKMSALAAYFV
partner: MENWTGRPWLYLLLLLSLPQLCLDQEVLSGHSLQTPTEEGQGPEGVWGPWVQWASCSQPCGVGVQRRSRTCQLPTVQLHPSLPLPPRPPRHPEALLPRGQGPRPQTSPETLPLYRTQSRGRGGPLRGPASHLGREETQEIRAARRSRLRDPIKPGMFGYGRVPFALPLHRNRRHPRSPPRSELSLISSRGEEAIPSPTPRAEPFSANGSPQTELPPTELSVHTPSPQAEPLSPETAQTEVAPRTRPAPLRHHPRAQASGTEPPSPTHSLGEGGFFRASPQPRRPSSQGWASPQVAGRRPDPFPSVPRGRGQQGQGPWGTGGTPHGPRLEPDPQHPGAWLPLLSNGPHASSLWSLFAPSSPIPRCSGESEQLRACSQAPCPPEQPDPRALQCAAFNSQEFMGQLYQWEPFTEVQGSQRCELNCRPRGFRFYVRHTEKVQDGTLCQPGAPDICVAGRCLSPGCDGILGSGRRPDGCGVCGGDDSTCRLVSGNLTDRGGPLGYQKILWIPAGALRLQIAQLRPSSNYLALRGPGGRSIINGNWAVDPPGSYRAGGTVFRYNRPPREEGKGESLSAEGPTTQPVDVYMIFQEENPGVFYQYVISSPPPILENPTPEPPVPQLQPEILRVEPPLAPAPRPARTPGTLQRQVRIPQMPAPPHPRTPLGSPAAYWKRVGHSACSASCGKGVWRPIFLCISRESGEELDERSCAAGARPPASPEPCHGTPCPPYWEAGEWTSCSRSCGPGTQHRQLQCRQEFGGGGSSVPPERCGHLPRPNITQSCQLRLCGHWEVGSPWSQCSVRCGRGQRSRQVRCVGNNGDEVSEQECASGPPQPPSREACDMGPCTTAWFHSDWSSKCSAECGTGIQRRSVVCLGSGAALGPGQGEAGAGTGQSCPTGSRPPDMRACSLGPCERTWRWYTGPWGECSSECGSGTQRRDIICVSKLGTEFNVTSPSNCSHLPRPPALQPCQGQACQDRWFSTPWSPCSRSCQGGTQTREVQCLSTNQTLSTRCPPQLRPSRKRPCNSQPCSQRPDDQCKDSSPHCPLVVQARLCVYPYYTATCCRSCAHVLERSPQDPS
B4: STAM-binding protein (Homo sapiens), O95630 (parent)
chain: MSDHGDVSLPPEDRVRALSQLGSAVEVNEDIPPRRYFRSGVEIIRMASIYSEEGNIEHAFILYNKYITLFIEKLPKHRDYKSAVIPEKKDTVKKLKEIAFPKAEELKAELLKRYTKEYTEYNEEKKKEAEELARNMAIQQELEKEKQRVAQQKQQQLEQEQFHAFEEMIRNQELEKERLKIVQEFGKVDPGLGGPLVPDLEKPSLDVFPTLTVSSIQPSDCHTTVRPAKPPVVDRSLKPGALSNSESIPTIDGLRHVVVPGRLCPQFLQLASANTARGVETCGILCGKLMRNEFTITHVLIPKQSAGSDYCNTENEEELFLIQDQQGLITLGWIHTHPTQTAFLSSVDLHTHCSYQMMLPESVAIVCSPKFQETGFFKLTDHGLEEISSCRQKGFHPHSKDPPLFCSCSHVTVVDRAVTITDLR
partner: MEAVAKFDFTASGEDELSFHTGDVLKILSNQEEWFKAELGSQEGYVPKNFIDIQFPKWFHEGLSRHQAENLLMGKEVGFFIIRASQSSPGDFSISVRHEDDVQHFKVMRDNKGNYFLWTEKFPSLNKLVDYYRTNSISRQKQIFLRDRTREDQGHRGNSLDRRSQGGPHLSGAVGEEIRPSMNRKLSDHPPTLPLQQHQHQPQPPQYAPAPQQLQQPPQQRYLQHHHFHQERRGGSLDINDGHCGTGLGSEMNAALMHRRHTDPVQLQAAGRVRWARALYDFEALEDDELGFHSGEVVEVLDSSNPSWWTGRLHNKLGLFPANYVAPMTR
B5: Serine/arginine-rich splicing factor 4 (Homo sapiens), Q08170 (parent)
chain: MPRVYIGRLSYQARERDVERFFKGYGKILEVDLKNGYGFVEFDDLRDADDAVYELNGKDLCGERVIVEHARGPRRDGSYGSGRSGYGYRRSGRDKYGPPTRTEYRLIVENLSSRCSWQDLKDYMRQAGEVTYADAHKGRKNEGVIEFVSYSDMKRALEKLDGTEVNGRKIRLVEDKPGSRRRRSYSRSRSHSRSRSRSRHSRKSRSRSGSSKSSHSKSRSRSRSGSRSRSKSRSRSQSRSRSKKEKSRSPSKEKSRSRSHSAGKSRSKSKDQAEEKIQNNDNVGKPKSRSPSRHKSKSKSRSRSQERRVEEEKRGSVSRGRSQEKSLRQSRSRSRSKGGSRSRSRSRSKSKDKRKGRKRSREESRSRSRSRSKSERSRKRGSKRDSKAGSSKKKKKEDTDRSQSRSPSRSVSKEREHAKSESSQREGRGESENAGTNQETRSRSRSNSKSKPNLPSESRSRSKSASKTRSRSKSRSRSASRSPSRSRSRSHSRS
B6: PDZ and LIM domain protein 3 (Homo sapiens), Q53GG5 (parent)
chain: MPQTVILPGPAPWGFRLSGGIDFNQPLVITRITPGSKAAAANLCPGDVILAIDGFGTESMTHADAQDRIKAAAHQLCLKIDRGETHLWSPQVSEDGKAHPFKINLESEPQDGNYFEHKHNIRPKPFVIPGRSSGCSTPSGIDCGSGRSTPSSVSTVSTICPGDLKVAAKLAPNIPLEMELPGVKIVHAQFNTPMQLYSDDNIMETLQGQVSTALGETPLMSEPTASVPPESDVYRMLHDNRNEPTQPRQSGSFRVLQGMVDDGSDDRPAGTRSVRAPVTKVHGGSGGAQRMPLCDKCGSGIVGAVVKARDKYRHPECFVCADCNLNLKQKGYFFIEGELYCETHARARTKPPEGYDTVTLYPKA

One experiment covers variants of B1. The note with it: with spy2_human SPRY2, O43597.
Regarding C51Y, the “effect of a mutation on the interaction” value was “with no effect”.

Regarding H113Q, the “effect of a mutation on the interaction” value is “with no effect”.

In the case of G108E, the “effect of a mutation on the interaction” value was “with no effect”.

The variants in a further experiment derive from B2. The note with it: with ikzf1_human IKZF1, Q13422.
ikzf1_human IKZF1, Q13422, sequence (Q13422 whole entry): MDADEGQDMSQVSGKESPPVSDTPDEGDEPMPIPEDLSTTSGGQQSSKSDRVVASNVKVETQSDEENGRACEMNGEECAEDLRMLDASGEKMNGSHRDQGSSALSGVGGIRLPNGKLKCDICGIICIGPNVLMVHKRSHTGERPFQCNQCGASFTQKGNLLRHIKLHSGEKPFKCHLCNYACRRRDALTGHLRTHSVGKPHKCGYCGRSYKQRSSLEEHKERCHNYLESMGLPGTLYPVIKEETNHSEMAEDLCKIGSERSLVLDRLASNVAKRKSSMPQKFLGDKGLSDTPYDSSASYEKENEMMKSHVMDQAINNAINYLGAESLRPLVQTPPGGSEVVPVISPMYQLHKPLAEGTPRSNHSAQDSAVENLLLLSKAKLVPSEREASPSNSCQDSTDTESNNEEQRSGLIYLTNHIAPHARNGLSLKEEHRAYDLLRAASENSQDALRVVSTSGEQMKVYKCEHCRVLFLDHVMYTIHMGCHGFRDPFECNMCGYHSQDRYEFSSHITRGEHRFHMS
On to R213C, for which the “effect of a mutation on the interaction” value is “with no effect”.

Take N226S: the “effect of a mutation on the interaction” value is reported as “with no effect”.

Variants of B3 are the subject of the next experiment. The note with it: with atl4_human ADAMTSL4, Q6UY14.
As for R267W, the “effect of a mutation on the interaction” value is given as “disrupting interaction strength”.

Variants of B4 are the subject of the next experiment. The note with it: with grap2_human GRAP2, O75791.
For Q155H, the “effect of a mutation on the interaction” value is given as “disrupting interaction strength”.

Turning to R255H, the “effect of a mutation on the interaction” value is “with no effect”.

A further experiment covers variants of B5. The settings on record: with srsf6_human SRSF6, Q13247.
srsf6_human SRSF6, Q13247, sequence (Q13247 whole entry, looked up): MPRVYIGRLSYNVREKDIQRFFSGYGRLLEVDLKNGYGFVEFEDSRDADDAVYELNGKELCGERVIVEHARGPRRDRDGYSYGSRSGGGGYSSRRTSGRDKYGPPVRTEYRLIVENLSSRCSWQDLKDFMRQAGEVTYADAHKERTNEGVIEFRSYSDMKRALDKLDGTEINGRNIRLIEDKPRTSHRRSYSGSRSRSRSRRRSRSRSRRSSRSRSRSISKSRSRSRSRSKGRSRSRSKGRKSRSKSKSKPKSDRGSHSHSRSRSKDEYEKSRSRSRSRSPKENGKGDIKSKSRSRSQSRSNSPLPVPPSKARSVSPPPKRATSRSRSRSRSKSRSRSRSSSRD
On to G338A, for which the “effect of a mutation on the interaction” value is recorded as “with no effect”.

Variants of B6 are the subject of the next experiment. The note with it: with actn2_human ACTN2, P35609.
actn2_human ACTN2, P35609, sequence (P35609 whole entry): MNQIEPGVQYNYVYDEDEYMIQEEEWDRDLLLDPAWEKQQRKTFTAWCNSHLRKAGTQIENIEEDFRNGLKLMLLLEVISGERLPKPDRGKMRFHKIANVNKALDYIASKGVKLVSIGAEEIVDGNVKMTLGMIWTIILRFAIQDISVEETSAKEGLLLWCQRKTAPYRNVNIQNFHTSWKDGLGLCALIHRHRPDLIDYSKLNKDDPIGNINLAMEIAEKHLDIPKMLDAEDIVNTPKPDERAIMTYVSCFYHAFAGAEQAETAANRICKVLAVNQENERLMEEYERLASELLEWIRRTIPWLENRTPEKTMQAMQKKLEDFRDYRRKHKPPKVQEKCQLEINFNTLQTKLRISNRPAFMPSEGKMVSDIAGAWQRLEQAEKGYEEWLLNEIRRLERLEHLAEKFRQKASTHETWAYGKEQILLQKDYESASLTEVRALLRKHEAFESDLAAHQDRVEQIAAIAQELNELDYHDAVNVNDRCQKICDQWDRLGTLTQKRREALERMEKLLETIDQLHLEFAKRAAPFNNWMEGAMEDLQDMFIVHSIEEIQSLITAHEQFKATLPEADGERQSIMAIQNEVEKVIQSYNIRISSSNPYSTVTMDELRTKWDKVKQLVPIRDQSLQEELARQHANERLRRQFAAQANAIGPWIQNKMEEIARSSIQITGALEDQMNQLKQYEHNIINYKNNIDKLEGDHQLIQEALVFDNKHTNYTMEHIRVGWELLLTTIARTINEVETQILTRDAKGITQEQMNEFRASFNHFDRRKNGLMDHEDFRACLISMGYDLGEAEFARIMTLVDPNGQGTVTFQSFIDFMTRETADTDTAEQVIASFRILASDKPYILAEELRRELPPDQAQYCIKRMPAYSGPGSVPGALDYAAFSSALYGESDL
For the variant T279M, the “effect of a mutation on the interaction” value is given as “with no effect”.

With T245I, the “effect of a mutation on the interaction” value is “with no effect”.

The values are drawn from IntAct's records for PubMed 31515488.
